B1: ATP synthase b′-subunit from Mycobacterium smegmatis with a C-terminal His10-tag (natural protein, UniProt A0R204 1-170, looked up)
chain: MGEFSATILAASQAAEEGGGGSNFLIPNGTFFAVLIIFLIVLGVISKWVVPPISKVLAEREAMLAKTAADNRKSAEQVAAAQADYEKEMAEARAQASALRDEARAAGRSVVDEKRAQASGEVAQTLTQADQQLSAQGDQVRSGLESSVDGLSAKLASRILGVDVNSGGTQ
notes: ATP synthase subunit b′, M. smegmatis mc2 155, encoded in the entire atp operon; modelled in substate S1a (PDB 7NJK): 22-166; residues 1 to 21 had no density but are present in the assembled enzyme; One copy in the enzyme; part of the peripheral stalk; No removal of the tag is told; also called b-subunit (in some sentences)
B2: ATP synthase β-subunit from Mycobacterium smegmatis (natural protein, UniProt A0R200 1-475, looked up)
chain: MTATAEKTAGRVVRITGPVVDVEFPRGSVPELFNALHAEITFGALAKTLTLEVAQHLGDSLVRCISMQPTDGLVRGVEVTDTGASISVPVGDGVKGHVFNALGDCLDDPGYGKDFEHWSIHRKPPAFSDLEPRTEMLETGLKVVDLLTPYVRGGKIALFGGAGVGKTVLIQEMINRIARNFGGTSVFAGVGERTREGNDLWVELADANVLKDTALVFGQMDEPPGTRMRVALSALTMAEFFRDEQGQDVLLFIDNIFRFTQAGSEVSTLLGRMPSAVGYQPTLADEMGELQERITSTRGRSITSMQAVYVPADDYTDPAPATTFAHLDATTELSRAVFSKGIFPAVDPLASSSTILDPAIVGDEHYRVAQEVIRILQRYKDLQDIIAILGIDELSEEDKQLVNRARRIERFLSQNMMAAEQFTGQPGSTVPLKETIEAFDKLTKGEFDHLPEQAFFLIGGLDDLAKKAESLGAKL
notes: ATP synthase subunit β, M. smegmatis mc2 155, encoded in the entire atp operon; modelled in substate S1a (PDB 7NJK): βE 8-471; βTP 7-475; βDP 8-475; Three copies in the enzyme (α3β3); also called βE; βTP
B3: ATP synthase bδ-subunit from Mycobacterium smegmatis (natural protein, UniProt A0R203 1-445, looked up)
chain: MSIFIGQLIGFAVIAFIIVKWVVPPVRTLMRNQQEAVRAALAESAEAAKKLADADAMHAKALADAKAESEKVTEEAKQDSERIAAQLSEQAGSEAERIKAQGAQQIQLMRQQLIRQLRTGLGAEAVNKAAEIVRAHVADPQAQSATVDRFLSELEQMAPSSVVIDTAATSRLRAASRQSLAALVEKFDSVAGGLDADGLTNLADELASVAKLLLSETALNKHLAEPTDDSAPKVRLLERLLSDKVSATTLDLLRTAVSNRWSTESNLIDAVEHTARLALLKRAEIAGEVDEVEEQLFRFGRVLDAEPRLSALLSDYTTPAEGRVALLDKALTGRPGVNQTAAALLSQTVGLLRGERADEAVIDLAELAVSRRGEVVAHVSAAAELSDAQRTRLTEVLSRIYGRPVSVQLHVDPELLGGLSITVGDEVIDGSIASRLAAAQTGLPD
notes: ATP synthase subunit bδ (natural fusion of a b-domain, a linking domain and a δ-domain), M. smegmatis mc2 155, encoded in the entire atp operon; modelled in substate S1a (PDB 7NJK): 1-162, 169-444; One copy in the enzyme; part of the peripheral stalk; also called fused bδ-subunit
B4: ATP synthase ε-subunit from Mycobacterium smegmatis (natural protein, UniProt A0R1Z9 1-121, looked up)
chain: MADLNVEIVAVERELWSGPATFVFTRTTAGEIGILPRHIPLVAQLVDDAMVRVEREGEDDLRIAVDGGFLSVTEETVRILVENAQFESEIDADAAKEDAASDDERTAAWGRARLRALGQID
notes: ATP synthase subunit ε, M. smegmatis mc2 155, encoded in the entire atp operon; modelled in substate S1a (PDB 7NJK): 3-120; One copy in the enzyme
B5: ATP synthase a-subunit from Mycobacterium smegmatis (natural protein, UniProt A0R206 1-252, looked up)
chain: MLAAEEGGAAIHVGHHTLVFELFGMTFNGDTILATAVTAVIVIALAFYLRAKVTSTGVPSGVQLFWEALTIQMRQQIEGSIGMKIAPFVLPLSVTIFVFILISNWLAVLPLQYGGADGAAAELYKAPASDINFVLALALFVFVCYHAAGIWRRGIVGHPIKVVKGHVAFLAPINIVEELAKPISLALRLFGNIFAGGILVALIAMFPWYIQWFPNAVWKTFDLFVGLIQAFIFSLLTILYFSQSMELDHEDH
notes: ATP synthase subunit a, M. smegmatis mc2 155, encoded in the entire atp operon; modelled in substate S1a (PDB 7NJK): 10-247; One copy in the enzyme
B6: ATP synthase c-subunit from Mycobacterium smegmatis (natural protein, UniProt A0R205 1-86, looked up)
chain: MDLDPNAIITAGALIGGGLIMGGGAIGAGIGDGIAGNALISGIARQPEAQGRLFTPFFITVGLVEAAYFINLAFMALFVFATPGLQ
notes: ATP synthase subunit c, M. smegmatis mc2 155, encoded in the entire atp operon; modelled in substate S1a (PDB 7NJK): 3-86 in all nine copies; Nine copies form the c9-ring of the rotor; in the rows with a and ε the subunit stands in that ring; also called c9-ring; c-ring
B7: ATP synthase γ-subunit from Mycobacterium smegmatis (natural protein, UniProt A0R201 1-307, looked up)
chain: MAATLRELRGRIRSAGSIKKITKAQELIATSRIAKAQARVEAARPYAAEITNMLTELAGASALDHPLLVERKQPKRAGVLVVSSDRGLCGAYNANVLRRAEELFSLLRDEGKDPVLYVVGRKALGYFSFRQRTVVESWTGFSERPTYENAREIADTLVNAFMAGADDEGDDAGADGILGVDELHIVFTEFRSMLSQTAVARRAAPMEVEYVGEVETGPRTLYSFEPDPETLFDALLPRYIATRVYAALLEAAASESASRRRAMKSATDNADDLIKALTLAANRERQAQITQEISEIVGGANALAGSK
notes: ATP synthase subunit γ, M. smegmatis mc2 155, encoded in the entire atp operon; modelled in substate S1a (PDB 7NJK): 3-213, 220-304; One copy in the enzyme

Columns and labels:
Experiment in all cases: cryo-EM structure; single particles of the ATP synthase purified in detergent and inhibited with bedaquiline (25 μM); 63 maps and 27 models, resolutions 2.11 to 4.15 Å; states S1 to S3 and substates
[1] = molecular target: B7; conditions: both partners purified
[2] = molecular target: B3; conditions: both partners purified
[3] = molecular target: B5; conditions: both partners purified
[4] = molecular target: T1, ATP synthase α-subunit from Mycobacterium smegmatis (Mycobacterium smegmatis, UniProt A0R202 1-548); conditions: both partners purified
T1 construct: ATP synthase subunit α, M. smegmatis mc2 155, encoded in the entire atp operon; modelled in substate S1a (PDB 7NJK): αE 5-21, 29-406, 411-521; αTP 5-21, 29-406, 411-521; αDP 6-406, 413-521, 527-545; Three copies in the enzyme (α3β3); also called αE; αTP

[5] = molecular target: B4; conditions: both partners purified
[6] = molecular target: the molecule itself

T1 sequence (A0R202 whole entry): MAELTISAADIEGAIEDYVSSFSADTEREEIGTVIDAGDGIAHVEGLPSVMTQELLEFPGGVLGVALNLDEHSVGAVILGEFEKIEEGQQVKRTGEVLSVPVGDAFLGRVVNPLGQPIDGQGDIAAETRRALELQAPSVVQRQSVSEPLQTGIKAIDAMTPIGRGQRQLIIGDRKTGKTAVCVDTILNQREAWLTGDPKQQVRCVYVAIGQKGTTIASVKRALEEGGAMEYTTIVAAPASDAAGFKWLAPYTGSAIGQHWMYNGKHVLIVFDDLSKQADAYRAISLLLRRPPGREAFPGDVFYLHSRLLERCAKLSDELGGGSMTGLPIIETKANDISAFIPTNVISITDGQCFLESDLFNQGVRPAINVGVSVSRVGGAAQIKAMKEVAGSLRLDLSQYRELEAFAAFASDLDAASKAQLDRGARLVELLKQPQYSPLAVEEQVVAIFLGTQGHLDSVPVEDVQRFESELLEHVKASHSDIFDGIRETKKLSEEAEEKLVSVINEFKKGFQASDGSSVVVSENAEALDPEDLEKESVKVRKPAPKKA

Binder: B1
- binding result [1]: binds
- binding result [2]: binds
- binding result [3]: binds
- binding result [4]: binds

Binder: B2
- binding result [4]: binds

Binder: B3
- binding result [4]: binds

Binder: B4
- binding result [1]: binds

Binder: B5
- binding result [2]: binds

Binder: B6
- binding result [5]: binds
- stoichiometry N [6]: 9
- binding result [3]: binds

Binder: B7
- binding result [4]: binds

Reference: paper PMC8617483, “Structure of the ATP synthase from Mycobacterium smegmatis provides targets for treating tuberculosis” (Proceedings of the National Academy of Sciences of the …, 2021)
